Experimental data from patent publication US10196442B2, “Methods of inhibiting growth of a colon cancer tumor in a subject by administering monoclonal antibodies to G protein-coupled receptor 49 (GPR49)” (Bionomics Inc., priority 2011, dated 2019).

Key:
GPR49-Fc = target: T1, GPR49-Fc (Homo sapiens, UniProt O75473); test: Solution affinity surface plasmon resonance of RSPO-1 on GPR49-Fc; type: binding; details: solution affinity SPR
T1 construct: FLAG (C)
Protocol: Methods: Binding of RSPO to GPR49 was analyzed using solution affinity surface plasmon resonance (Day E S, et al. Biochemistry. 2005 Feb. 15; 44(6):1919-31). The method utilizes conditions of so-called “mass-transport-limited” binding, in which the initial rate of ligand binding (protein binding to the senor chip) is proportional to the concentration of ligand in solution (BIApplications Handbook (1994) Chapter 6: Concentration measurement, pp 6-1-6-10, Pharmacia Biosensor AB). Under these conditions, binding of the soluble analyte (protein flowing over chip surface) to the immobilized protein on the chip is fast compared to the diffusion of the analyte into the dextran matrix on the chip surface. Therefore, the diffusion properties of the analyte and the concentration of analyte in solution flowing over the chip surface determine the rate at which analyte binds to the chip. In this experiment, the concentration of free RSPO-1 in solution is determined by the initial rate of binding to a CMS Biacore chip containing immobilized GPR49-Fc. Into these RSPO-1 solutions were titrated the competing GPR49-Fc.

[1] = system: NIH 3T3 fibroblast cells stably transfected with GPR49; test: Cell Titer Glo proliferation of GPR49-3T3 cells; type: cell-based

T1 sequence (O75473 with tags, fused parts or gaps): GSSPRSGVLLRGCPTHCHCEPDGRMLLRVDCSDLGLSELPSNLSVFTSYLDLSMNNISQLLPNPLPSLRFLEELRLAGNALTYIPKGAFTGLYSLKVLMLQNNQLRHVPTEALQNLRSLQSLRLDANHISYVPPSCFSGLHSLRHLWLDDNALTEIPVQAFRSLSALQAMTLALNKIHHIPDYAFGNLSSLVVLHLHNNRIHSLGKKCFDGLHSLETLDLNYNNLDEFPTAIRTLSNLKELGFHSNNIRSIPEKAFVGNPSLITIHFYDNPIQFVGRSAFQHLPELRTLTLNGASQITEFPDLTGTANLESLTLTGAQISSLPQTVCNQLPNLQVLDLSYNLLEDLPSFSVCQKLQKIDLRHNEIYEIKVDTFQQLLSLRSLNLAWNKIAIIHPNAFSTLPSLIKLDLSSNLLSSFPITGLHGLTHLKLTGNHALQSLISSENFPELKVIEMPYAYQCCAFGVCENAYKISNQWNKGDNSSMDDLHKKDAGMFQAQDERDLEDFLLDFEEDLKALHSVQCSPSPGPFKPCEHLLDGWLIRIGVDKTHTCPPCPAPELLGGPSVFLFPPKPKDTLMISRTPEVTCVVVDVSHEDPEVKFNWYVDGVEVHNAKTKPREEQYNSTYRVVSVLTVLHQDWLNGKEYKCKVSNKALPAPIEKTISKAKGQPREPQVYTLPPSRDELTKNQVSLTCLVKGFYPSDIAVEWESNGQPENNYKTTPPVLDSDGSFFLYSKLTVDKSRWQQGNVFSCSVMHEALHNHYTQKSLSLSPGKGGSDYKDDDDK

binding profile to GPR49-Fc (GPR49-Fc): bi-phasic binding profile
B1: R-spondin 1: R-spondin family ligand purchased from R& D systems (protein, UniProt Q2MKA7 21-263, looked up)
R-spondin-1: SRGIKGKRQRRISAEGSQACAKGCELCSEVNGCLKCSPKLFILLERNDIRQVGVCLPSCPPGYFDARNPDMNKCIKCKIEHCEACFSHNFCTKCKEGLYLHKGRCYPACPEGSSAANGTMECSSPAQCEMSEWSPWGPCSKKQQLCGFRRGSEERTRRVLHAPVGDHAACSDTKETRRCTVRRVPCPEGQKRRKGGQGRRENANRNLARKESKEAGAGSRRRKGQQQQQQQGTVGPLTSAGPA
increase in proliferation ([1]; GPR49-3T3 clone 28, compared to Stanniocalcin): 4 fold | increase in cell proliferation ([1]; GPR49-3T3 clone 50, 2 days, serum free, compared to Stanniocalcin): 25-40%
